Test results taken from paper PMC4423210, “Ubiquitination of the Dishevelled DIX domain blocks its head-to-tail polymerization” (Nature Communications, 2015).

Tests used:
[1] = target: the molecule itself; test: crystal structure; hDvl2 DIX-Y27D, 40% PEG400, 0.1 M Tris pH 8.5, 0.2 M LiSO4, 19 °C; helical filament in the crystal
[2] = target: the molecule itself; test: SEC-MALS; highest loading concentration (235 μM DIX, ∼160 μM DIX54-Ub or DIX58-Ub; reduced ∼10x during SEC); Superdex-75 HR10/300, 20 mM Tris pH 7.4, 200 mM NaCl, 0.01% NaN3; self-association, apparent molecularity
[3] = target: the molecule itself; test: SEC-MALS; loading concentration 50 μM (reduced ∼10x during SEC); Superdex-75 HR10/300, 20 mM Tris pH 7.4, 200 mM NaCl, 0.01% NaN3; self-association, apparent molecularity
[4] = target: the molecule itself; test: SEC-MALS; loading concentration 10 μM (reduced ∼10x during SEC); Superdex-75 HR10/300, 20 mM Tris pH 7.4, 200 mM NaCl, 0.01% NaN3; self-association, apparent molecularity

Protein	binding result [1]	stoichiometry N [2]	stoichiometry N [3]	stoichiometry N [4]
hDvl2 DIX domain bearing the polymerization-deficient mutation M4 (Y27D) (domain or fragment, human, DIX domain of human Dishevelled-2 (hDvl2) with Y27D; Crystallised at 50 mg/ml; forms a helical head-to-tail filament in the crystal; also called hDvl2 DIX-Y27D; source: E. coli BL21-CodonPlus(DE3)-RIL, purified (Ni-NTA, TEV, gel filtration, anion exchange); not shown: 6xHis, N-terminal, cleaved) GETKVIYHLDEEETPDLVKIPVPAERITLGDFKSVLQRPAGAKYFFKSMDQDFGVVKEEISDDNARLPCFNGRVVSWLVSSDNPQPEMAPPVHEPR	binds	–	–	–
DIX domain of human Dvl2 (hDvl2), unmodified (domain or fragment, UniProt O14641 11-93, looked up, DIX domain of human Dishevelled-2 (hDvl2); Codon-optimised synthetic gene in pCDF-PylT; PDB 4WIP holds the Y27D mutant of the hDvl2 DIX domain; also called unmodified DIX; hDvl2 DIX domain; not shown: His6, N-terminal, cleaved) VGETKVIYHLDEEETPYLVKIPVPAERITLGDFKSVLQRPAGAKYFFKSMDQDFGVVKEEISDDNARLPCFNGRVVSWLVSSD	–	> 84 monomers	3	2
